Laboratory results: patent US20250163137A1

Legend:
[1] = target: human FDP (fibrin-fibrinogen degradation products) (human) (UniProt P02671); assay: kinetic analysis, 1:1 binding fit (RU read-out; instrument not named)
[2] = target: human FDP (fibrin-fibrinogen degradation products) (human) (UniProt P02671); assay: affinity test (RU read-out; instrument not named)
[3] = target: human FDP (fibrin-fibrinogen degradation products) (human) (UniProt P02671); assay: comparison drawn from Tables 3 and 4 (kinetic analysis and affinity test)

Kd [1]: 16.5 nM
koff [1]: 0.00225 s⁻¹
kon [1]: 136000 M⁻¹ s⁻¹
Kd [2]: 157 nM
fold binding capacity against canine FDP [3]: 10 fold
B1: mAb 14G12-5 (antibody, V domains shown)
VH: EVQLVESGGGLVKPGGSLKLSCAASGFAFNAYDMSWVRQTPEKRLEWVAYISSSGDYTYYPDTVKGRFTVSRDNAKSTLYLHMGSLKSEDTAMYYCAVYYHYDEGLDYWGQGTALTVSS
VL: QIVLIQSPAIMSASPGEKVTMTCSASSSVNYMHWYQQKSGTSPKRWIYDTSKLASGVPARFSGSGSGTSYSLTISSMEAEDAATYYCQQWSSNPPTFGGGTKLEIKR
